Article PMC5992339, “The Structure of an Infectious Human Polyomavirus and Its Interactions with Cellular Receptors” (Structure(London, England:1993), 2018)

Biological target: the molecule itself
Assay: cryo-EM structure; purified native BKV virions (0.25 mg/ml) adsorbed on carbon-coated lacey grids in buffer A without Triton X-100; icosahedral reconstructions: unliganded 3.8 A, with 20 mM GT1b oligosaccharide 3.4 A, with heparin 10 mg/ml 3.6 A, with 5 mM DTT (reduced) 6.5 A

B1: BK polyomavirus major capsid protein VP1 (natural protein)
chain: MAPTKRKGECPGAAPKKPKEPVQVPKLLIKGGVEVLEVKTGVDAITEVECFLNPEMGDPDENLRGFSLKLSAENDFSSDSPERKMLPCYSTARIPLPNLNEDLTCGNLLMWEAVTVQTEVIGITSMLNLHAGSQKVHEHGGGKPIQGSNFHFFAVGGEPLEMQGVLMNYRSKYPDGTITPKNPTAQSQVMNTDHKAYLDKNNAYPVECWVPDPSRNENARYFGTFTGGENVPPVLHVTNTATTVLLDEQGVGPLCKADSLYVSAADICGLFTNSSGTQQWRGLARYFKIRLRKRSVKNPYPISFLLSDLINRRTQRVDGQPMYGMESQVEEVRVFDGTERLPGDPDMIRYIDKQGQLQTKML
notes: Major capsid protein VP1 of BK polyomavirus, Dunlop strain, as it stands in the native virion made from the genome of plasmid pGEM7-Dunlop; the model is built up to Lys359 in chain 6, and the first 13 residues of chain 2 are not resolved; Protein of the native virion, with no tags and no truncation; The capsid is built from 72 pentons of VP1 (T = 7d); also called BKV VP1; chains 1-6 (the six …)
binding result: binds
